Experimental data as given in publication PMC6879724.

Molecular target: Manduca sexta CAD repeat 12 (CR12) fragment
Assay: ELISA
Settings: plates coated with 0.5 μg of CR12, read off a plot

| Substance | response (Absorbance 490 nm) (25 nM activated toxin mixed with PxHsp90 at a 1:30 ratio (toxin to chaperone), parent measured without PxHsp90, parent: est. 1.2) | response (Absorbance 490 nm) (25 nM activated toxin, no PxHsp90, parent: est. 1.2) | response (Absorbance 490 nm) (50 nM activated toxin mixed with PxHsp90 at a 1:30 ratio (toxin to chaperone), parent measured without PxHsp90, parent: est. 1.6) | response (Absorbance 490 nm) (50 nM activated toxin, no PxHsp90, parent: est. 1.6) | response (Absorbance 490 nm) (100 nM activated toxin mixed with PxHsp90 at a 1:30 ratio (toxin to chaperone), parent measured without PxHsp90, parent: est. 1.7) | response (Absorbance 490 nm) (100 nM activated toxin, no PxHsp90, parent: est. 1.7) | response (Absorbance 490 nm) (25 nM protoxin mixed with PxHsp90 at a 1:30 ratio (protoxin to chaperone), parent measured without PxHsp90, parent: est. …) | response (Absorbance 490 nm) (25 nM protoxin, no PxHsp90, parent: est. 0.86) | response (Absorbance 490 nm) (50 nM protoxin mixed with PxHsp90 at a 1:30 ratio (protoxin to chaperone), parent measured without PxHsp90, parent: est. …) | response (Absorbance 490 nm) (50 nM protoxin, no PxHsp90, parent: est. 0.95) | response (Absorbance 490 nm) (100 nM protoxin mixed with PxHsp90 at a 1:30 ratio (protoxin to chaperone), parent measured without PxHsp90, parent: est. …) | response (Absorbance 490 nm) (100 nM protoxin, no PxHsp90, parent: est. 1.2) |
| --- | --- | --- | --- | --- | --- | --- | --- | --- | --- | --- | --- | --- |
| Cry1Ab activated toxin (from UniProt P0A370) G439D | 0.58 | 0.44 | 0.77 | 0.48 | 1.1 | 0.66 | – | – | – | – | – | – |
| Cry1Ab protoxin (from UniProt P0A370) G439D | – | – | – | – | – | – | 0.82 | 0.44 | 1.2 | 0.47 | 1.6 | 0.52 |
